Assay results: patent US8673856B2 (Anygen Co., Ltd., priority 2006, dated 2014)
No end group written: not given here.

Columns and labels:
[1] = biological target: T1, human N-type calcium channel (Homo sapiens, UniProt Q00975); assay type: cell-based
T1 construct: expressed in transfected cells; host or cells: HEK 293 (human embryonic kidney) cells

[2] = biological target: T1, human N-type calcium channel; assay type: cell-based; remark: listed apart in the source

“CKGTGKSCSRLMYNCCTGSCRSGKC-NH2 (CKGTGKSCSRLMYNCCTGSCRSGKC-NH2; ends and bridges not checked) [FVIA[I11L, A12M], FVIA with Ile11 and Ala12 mutated to Leu and Met]” was tested, and the “Calcium channel blocking activity” value [1] was “calcium channel blocking activity similar to FVIA” and the “Reversibility” value [2] was “significantly reduced reversibility”.
